Measured values as given in paper PMC8178886, “Recombinant laccase rPOXA 1B real-time, accelerated and molecular dynamics stability study” (BMC Biotechnology, 2021).

Substrate: CCn1c(=NN=c2sc3cc(S(=O)(=O)O)ccc3n2CC)sc2cc(S(=O)(=O)O)ccc21
Assay: cells, lysate or membranes
Format: biochemical, Pleurotus ostreatus
Conditions: unpurified concentrate stored 12 months at 240.98 K (-32.55 °C), activity unchanged, 0.1 M citrate pH 3.0, 25 °C, ABTS 0.1-3 mM (all above the KM), air O2

B1: rPOXA 1B (Pleurotus ostreatus) (protein)
chain: SIGPRGTLNIANKVIQPDGFYRSTVLAGGSYPGPLIKGKTGDRFQINVVNKLADTSMPVDTSIHWHGLFVKGHNWADGPAMVTQCPIVPGHSFLYDFEVPDQAGTFWYHSHLGTQYCDGLRGPLVVYSKNDPHKRLYDVDDESTVLTVGDWYHAPSLSLTGVPHPDSTLFNGLGRSLNGPASPLYVMNVVKGKRYRIRLINTSCDSNYQFSIDGHTFTVIEADGENTQPLQVDQVQIFAGQRYSLVLNANQAVGNYWIRANPNSGDPGFENQMNSAILRYKGARSIDPTTPEQNATNPLHEYNLRPLIKKPAPGKPFPGGADHNINLNFAFDPATALFTANNHTFVPPTVPVLLQILSGTRDAHDLAPAGSIYDIKLGDVVEITMPALVFAGPHPIHLHGHTFAVVRSAGSSTYNYENPVRRDVVSIGDDPTDNVTIRFVADNAGPWFLHCHIDWHLDLGFAVVFAEGVNQTAAANPVPEAWNNLCPIYNSSNPSKLLMGTNAIGRLPAPLKA
notes: recombinant, made in Pichia pastoris X33/pGAPZalphaA-LaccPost-Stop clone 1 (10 L bioreactor); unpurified enzyme concentrate without preservatives
Km: 41.4 ± 4.6 µM
Vmax: 10.2 µM/min
